# Source: patent US20240343811A1
# Read-outs that look alike come from different tables or passages of the source.
# Key:
# [1] = biological target: CD16 on primary human NK cells (human) (UniProt P08637); assay: FACS on human NK cells
# [2] = biological target: human CD16a (158V), full length, on cells (human) (UniProt P08637); assay: cell-based or functional assay
# [3] = biological target: cynomolgus monkey CD16, full length, on FlpinCHO cells (cynomolgus monkey) (UniProt Q8SPW2); assay: FACS on FlpinCHO cells
# Chain of cynomolgus monkey CD16, full length, on FlpinCHO cells (cynomolgus monkey) (Q8SPW2 other isoform, or with tags, fused parts or gaps limits assumed): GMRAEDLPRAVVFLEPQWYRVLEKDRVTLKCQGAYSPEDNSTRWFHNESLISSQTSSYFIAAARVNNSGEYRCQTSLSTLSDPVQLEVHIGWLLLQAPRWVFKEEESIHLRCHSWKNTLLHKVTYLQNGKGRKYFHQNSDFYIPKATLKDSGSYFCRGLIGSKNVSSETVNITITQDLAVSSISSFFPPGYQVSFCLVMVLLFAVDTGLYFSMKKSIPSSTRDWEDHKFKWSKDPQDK
# [4] = biological target: human CD16a (158F), full length, on FlpinCHO cells (human) (UniProt P08637); assay: FACS on FlpinCHO cells
# Chain of human CD16a (158F), full length, on FlpinCHO cells (human) (P08637 17-254 limits assumed): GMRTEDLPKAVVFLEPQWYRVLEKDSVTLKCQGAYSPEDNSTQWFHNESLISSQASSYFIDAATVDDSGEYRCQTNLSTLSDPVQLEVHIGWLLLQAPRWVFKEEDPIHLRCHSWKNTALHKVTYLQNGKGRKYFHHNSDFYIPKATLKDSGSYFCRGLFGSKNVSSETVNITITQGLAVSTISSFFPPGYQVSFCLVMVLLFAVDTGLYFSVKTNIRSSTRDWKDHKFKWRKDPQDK
# [5] = biological target: human CD16a (158V), full length, on cells (human) (UniProt P08637); assay: FACS on FlpinCHO cells
# [6] = biological target: human CD16b (NA1), full length, on FlpinCHO cells (human) (UniProt O75015); assay: FACS on FlpinCHO cells
# Chain of human CD16b (NA1), full length, on FlpinCHO cells (human) (O75015 other isoform, or with tags, fused parts or gaps limits assumed): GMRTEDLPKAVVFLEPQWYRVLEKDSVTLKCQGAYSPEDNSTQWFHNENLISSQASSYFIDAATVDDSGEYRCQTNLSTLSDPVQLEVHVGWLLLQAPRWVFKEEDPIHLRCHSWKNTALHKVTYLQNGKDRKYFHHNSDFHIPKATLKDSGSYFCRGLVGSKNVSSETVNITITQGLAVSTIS
# [7] = biological target: human CD16b (NA2), full length, on FlpinCHO cells (human) (UniProt O75015); assay: FACS on FlpinCHO cells
# Chain of human CD16b (NA2), full length, on FlpinCHO cells (human) (O75015 17-200 N65S limits assumed): as the sequence (O75015 other isoform, or with tags, fused parts or gaps limits assumed) above, with R20S, N49S, D66N, V90I counted along it
# [8] = biological target: human CD16a (158V), full length, on cells (human) (UniProt P08637); assay: cell-based or functional assay; remark: listed apart in the source
# [9] = biological target: human CD16a (158V), full length, on cells (human) (UniProt P08637); assay: FACS, biotinylated antibody
# [10] = biological target: human CD16a (158V), full length, on cells (human) (UniProt P08637); assay: FACS, biotinylated antibody, +10 mg/mL human immunoglobulin
# Chain of human CD16a (158V), full length, on cells (human) (P08637 17-254 F176V limits assumed): as the sequence (P08637 17-254 limits assumed) above, with F160V counted along it
# Chain of CD16 on primary human NK cells (human) (P08637 17-254): as the sequence (P08637 17-254 limits assumed) above
substance,measurement,setting,value
"NC, negative control antibody scFv-hFc (L234A, L235A and D265A) against chicken egg lysozyme (Fc fusion)",Maximum mean fluorescence intensity,[1],238
same,Maximum fluorescence value,[2],2070
same,Maximum mean fluorescence intensity,[3],128
same,Maximum mean fluorescence intensity,[4],216
same,Maximum mean fluorescence intensity,[5],248
same,Maximum mean fluorescence intensity,[6],189
same,Maximum mean fluorescence intensity,[7],447
same,"EC50, activation activity for Jurkat cell",[8],19 nM
same,Maximum fluorescence value,[8],6400
same,Maximum mean fluorescence intensity,[9],134
same,Maximum mean fluorescence intensity,[10],96
